# Source: IntAct's records for PubMed 20558380
# B1: Vang-like protein 2 (Homo sapiens), Q9ULK5 (parent)
# chain: MDTESQYSGYSYKSGHSRSSRKHRDRRDRHRSKSRDGGRGDKSVTIQAPGEPLLDNESTRGDERDDNWGETTTVVTGTSEHSISHDDLTRIAKDMEDSVPLDCSRHLGVAAGATLALLSFLTPLAFLLLPPLLWREELEPCGTACEGLFISVAFKLLILLLGSWALFFRRPKASLPRVFVLRALLMVLVFLLVVSYWLFYGVRILDARERSYQGVVQFAVSLVDALLFVHYLAVVLLELRQLQPQFTLKVVRSTDGASRFYNVGHLSIQRVAVWILEKYYHDFPVYNPALLNLPKSVLAKKVSGFKVYSLGEENSTNNSTGQSRAVIAAAARRRDNSHNEYYYEEAEHERRVRKRRARLVVAVEEAFTHIKRLQEEEQKNPREVMDPREAAQAIFASMARAMQKYLRTTKQQPYHTMESILQHLEFCITHDMTPKAFLERYLAAGPTIQYHKERWLAKQWTLVSEEPVTNGLKDGIVFLLKRQDFSLVVSTKKVPFFKLSEEFVDPKSHKFVMRLQSETSV
# partner: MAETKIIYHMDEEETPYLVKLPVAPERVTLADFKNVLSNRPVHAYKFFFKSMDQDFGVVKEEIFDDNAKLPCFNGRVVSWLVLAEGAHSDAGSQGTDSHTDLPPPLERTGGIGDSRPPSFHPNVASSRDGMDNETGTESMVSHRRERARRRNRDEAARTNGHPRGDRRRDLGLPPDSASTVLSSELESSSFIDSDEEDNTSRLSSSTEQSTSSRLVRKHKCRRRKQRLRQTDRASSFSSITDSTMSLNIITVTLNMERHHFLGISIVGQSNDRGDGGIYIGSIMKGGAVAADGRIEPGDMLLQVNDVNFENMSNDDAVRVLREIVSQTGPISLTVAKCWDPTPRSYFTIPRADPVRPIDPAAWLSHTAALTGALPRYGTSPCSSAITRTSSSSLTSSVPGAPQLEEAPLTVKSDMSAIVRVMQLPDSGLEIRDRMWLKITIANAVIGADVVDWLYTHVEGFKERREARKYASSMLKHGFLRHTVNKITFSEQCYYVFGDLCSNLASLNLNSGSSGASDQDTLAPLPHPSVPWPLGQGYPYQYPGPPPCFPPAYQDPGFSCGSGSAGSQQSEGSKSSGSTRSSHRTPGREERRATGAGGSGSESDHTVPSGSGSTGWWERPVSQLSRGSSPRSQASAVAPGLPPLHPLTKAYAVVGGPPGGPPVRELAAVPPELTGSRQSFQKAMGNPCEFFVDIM
# B2: Vang-like protein 2 (Homo sapiens), Q9ULK5 (parent)
# chain: B1 chain
# partner: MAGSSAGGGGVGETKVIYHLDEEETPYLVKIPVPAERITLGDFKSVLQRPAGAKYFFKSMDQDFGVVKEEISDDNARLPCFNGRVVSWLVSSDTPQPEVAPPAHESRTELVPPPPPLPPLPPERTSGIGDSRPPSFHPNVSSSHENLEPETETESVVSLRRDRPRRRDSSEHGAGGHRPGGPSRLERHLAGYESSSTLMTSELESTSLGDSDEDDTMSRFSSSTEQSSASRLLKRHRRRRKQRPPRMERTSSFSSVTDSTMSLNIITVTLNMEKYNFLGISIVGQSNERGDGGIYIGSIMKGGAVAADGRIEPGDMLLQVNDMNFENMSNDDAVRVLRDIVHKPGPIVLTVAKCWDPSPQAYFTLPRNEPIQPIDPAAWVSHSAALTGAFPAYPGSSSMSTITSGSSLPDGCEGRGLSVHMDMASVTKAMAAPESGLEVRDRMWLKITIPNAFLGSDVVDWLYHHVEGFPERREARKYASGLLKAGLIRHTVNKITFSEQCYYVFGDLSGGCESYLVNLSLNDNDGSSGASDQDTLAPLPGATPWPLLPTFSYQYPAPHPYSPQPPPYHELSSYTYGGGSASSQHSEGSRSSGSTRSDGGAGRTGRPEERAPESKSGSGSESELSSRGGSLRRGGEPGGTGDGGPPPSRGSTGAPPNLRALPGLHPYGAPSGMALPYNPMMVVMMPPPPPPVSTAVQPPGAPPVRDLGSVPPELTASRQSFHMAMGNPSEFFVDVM
# B3: Vang-like protein 2 (Homo sapiens), Q9ULK5 (parent)
# chain: B1 chain
# partner: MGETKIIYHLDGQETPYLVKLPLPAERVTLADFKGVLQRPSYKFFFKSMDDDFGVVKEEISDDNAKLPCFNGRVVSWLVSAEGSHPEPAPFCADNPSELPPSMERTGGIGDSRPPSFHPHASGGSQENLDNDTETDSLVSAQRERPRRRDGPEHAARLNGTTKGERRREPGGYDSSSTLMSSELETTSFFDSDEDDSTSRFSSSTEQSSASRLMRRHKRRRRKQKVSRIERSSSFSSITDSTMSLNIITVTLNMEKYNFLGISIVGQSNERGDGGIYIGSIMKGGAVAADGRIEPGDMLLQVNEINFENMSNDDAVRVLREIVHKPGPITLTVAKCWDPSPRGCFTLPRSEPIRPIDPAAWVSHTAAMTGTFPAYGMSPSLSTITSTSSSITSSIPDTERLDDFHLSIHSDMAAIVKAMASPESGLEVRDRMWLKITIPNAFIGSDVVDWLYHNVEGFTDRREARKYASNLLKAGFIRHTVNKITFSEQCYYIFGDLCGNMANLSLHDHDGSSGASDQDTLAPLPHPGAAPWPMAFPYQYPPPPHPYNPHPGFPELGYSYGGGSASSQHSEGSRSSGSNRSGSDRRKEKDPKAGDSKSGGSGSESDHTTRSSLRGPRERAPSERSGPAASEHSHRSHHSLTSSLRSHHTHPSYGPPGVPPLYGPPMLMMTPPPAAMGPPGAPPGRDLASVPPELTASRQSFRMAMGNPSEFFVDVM
# Variants of: B1
# Details: with dvl1_mouse Dvl1, P51141
row,effect of a mutation on the interaction,Variant
1,disrupting interaction,D255E
2,decreasing interaction,R353C
3,disrupting interaction,F437S
4,disrupting interaction,S464N

# Variants of: B2
# Details: with dvl2_mouse Dvl2, Q60838
row,effect of a mutation on the interaction,Variant
1,decreasing interaction,R353C
2,disrupting interaction,D255E
3,disrupting interaction,F437S
4,disrupting interaction,S464N

# Variants of: B3
# Details: with dvl3_mouse Dvl3, Q61062
row,effect of a mutation on the interaction,Variant
1,disrupting interaction,D255E
2,disrupting interaction,F437S
3,decreasing interaction,R353C
4,disrupting interaction,S464N
